Measurements: the nanobody polyreactivity screen of Harvey et al. (2022)

Assay: yeast display, Sf9 membrane polyspecificity reagent, FACS + sequencing; frameworks hold sequencing errors
Method in brief: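 Polyreactivity labels are assigned by the sorting gate from which each nanobody was recovered. The gates were low and high (top ~1%), set on anti-HA fluorescence for expression and streptavidin fluorescence for reagent binding. Before sorting, galactose-induced (36–48 hours) yeast display cells were stained for 1 hour at 4 °C with 10% biotinylated, detergent-solubilized Sf9 membrane reagent.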

Sequence | polyreactivity (PSR sort gate)
QVQLVESGGGLVQAGGSLRLSCAASGFIFPRNVMGWYRQAPGKERELVAAISRSGGSTYYADSVKGRFTISPDNVKNTVFLQMNSLIPEDTAVYYFAKRTFYNGEYWGQGTQVTVSS | low polyreactivity
QVQLVESGGGLVQAGGSLRLSCAASGFIFPRYVMGWYRQAPGKERELVAAITQGGGSTYYADSVKGRFTISRDNAKNTVYLQMNSLKPEDTAVYYCAAEVWRSYGYWGQGTQVTVSS | low polyreactivity
QVQLVESGGGLVQAGGSLRLSCAASGFIFPSYAMGWYRQAPGKERELVAAITRSSGSTYYADSVKGRFTISRDNAKNTVYLEMNCLKAVDTAVYYCNAFDYSYYRSPEMDYWGQGTQVTVSS | high polyreactivity
QVQLVESGGGLVQAGGSLRLSCAASGFIFPTYAMGWYRQAPGKERELVAAISRSGGRTYYADSVKGRFTISRDNAKNTVYLQKNSLKPEDTAVYYCAAAYLRRVAYDYWGQGTQVTVSS | high polyreactivity
QVQLVESGGGLVQAGGSLRLSCAASGFIFPVNAMGWYRQAAGKERELVAAITSSGGDTYYADSVKGRFTISRDNAKNTVYLQMNSLKPEDTAVYYCAAEYTQEQEDYDYWGQGTQLTVSS | low polyreactivity
QVQLVESGGGLVQAGGSLRLSCAASGFIFPWYAMGWYRLAPGKERELVAIISWDTGSTYYADSVKGRFTISRDNAKNTVYLQMNSLKPEDTAVYYCVAYVCSTYSAPEYYWGQGTQVTVSS | low polyreactivity
QVQLVESGGGLVQAGGSLRLSCAASGFIFPWYSMVWSRQAPGKERELVAAISRGGRTNYADSVKGRFTISRDNAKNTVYLQMNSLIPEDTAVYYCAKKYYLSGSRADDSWGQGTQVTVSS | high polyreactivity
QVQLVESGGGLVQAGGSLRLSCAASGFIFPYYALGWYRQAPGKEREFVAAISKTAGRTYYADSVKGRFTISRDNAKNTVYLQMNSLKPEDTAVYYCAVGNKRDAYYQYSSYGYWGQGTQVTVSS | low polyreactivity
QVQLVESGGGLVQAGGSLRLSCAASGFIFPYYAMGWYRQAPGKDRELVAAISQSGGSTYYADSVKGRFTISRDYAKNTVYLQMNSLKPEDTEVYYCAKFIPSYHDGDYWGQGTQVTVSS | low polyreactivity
QVQLVESGGGLVQAGGSLRLSCAASGFIFPYYAMGWYRQAPGKERELVAAILTGGSTYYADSVKGRFTISRDNAKNTVYLQMNSLKAEDSAVYYCAARRKYDPNYYWGQGTQVTVSS | high polyreactivity
QVQLVESGGGLVQAGGSLRLSCAASGFIFPYYAMGWYRQAPGKERELVATITSSGGSTYYADSVKGRFTISRDNAKNTVYLQMNSLKPEDTAVYYCAARRRYKYYGSRYDYWGQGTQVTVSS | high polyreactivity
QVQLVESGGGLVQAGGSLRLSCAASGFIFQGYVMGRYRQAPGKVREFVAAISRSGGTTFYADSVKGRFTISRDNAKNPVYLQMNSLKPEDTAVYYCNRAPLGRPGYDYWGPGTQVTVSS | high polyreactivity
QVQLVESGGGLVQAGGSLRLSCAASGFIFQKYAMGWYRQAPGKERELVAAITKRGGSTYYADSVKGRFTISRDNAKNTVYLQMNSLKPEDTAVYYCAAYAYDYEYDYWGQGTQVTVSS | high polyreactivity
QVQLVESGGGLVQAGGSLRLSCAASGFIFQQNAMGWYRQAPAKERELVAAINRSGGSTNYADSVKGRFTISRDNAKNTVYLQMNSLKPEDTAVYYCATNGRSFVSKSTMYYWGQGTQVTVSS | high polyreactivity
QVQLVESGGGLVQAGGSLRLSCAASGFIFQRYAMGWYRPAPGKERELVAAISWSGGSTSYADSVKGRFTISRDNAKNPVYLQMYSLKPVDTAVYYCAARRPVYRKYGDRGRWYNYWGQGTQVTVSS | high polyreactivity
QVQLVESGGGLVQAGGSLRLSCAASGFIFQRYAMGWYRQAPGKERELVAAISWSGGITYYADSVKGRFTISRDNAKNTVYLQMHSLKPEDTAVYYCAAGLAVGDYYWGQGTQVTVSS | high polyreactivity

Sequence | polyreactivity (PSR sort gate)
QVQLVESGGGLVQAGGSLRLSCAASGFIFQSYAMGWYRQAPGKERELVAAISASGGRTYYADSVKGRFTISRDNAKNTVYLQMNSLKPEDNAVYYCNARPAGRGYNYWGQGTQVTVSS | high polyreactivity
QVQLVESGGGLVQAGGSLRLSCAASGFIFQTNHMGWYRQAPGKERELVAAISSGDSTYYADSVKGRFTISRDNAKNTVYLQMNSLIPEDTAVYYCAADVLGTTTVGGFNYWGQGTQVTVSS | low polyreactivity
QVQLVESGGGLVQAGGSLRLSCAASGFIFQYYAMGWFRQARGKERELVAAIRSGGSTYYADSVKGRFTISRDNAKNTFYLQLNSLKPEDTAVYFCGAKYRVFYGFDYWGQGTQVTVSS | high polyreactivity
QVQLVESGGGLVQAGGSLRLSCAASGFIFQYYAMGWYRQAPGKERELVAVIRSGGSTYYADSVKGRFTISRDNAKNTVYLQMNSLKPEDTAVYYCARPSRGPPRGYYWGHGTQVTVSS | high polyreactivity
QVQLVESGGGLVQAGGSLRLSCAASGFIFRDNAMGWYRQAPGKERELVAAISERGGRTYYADSVKGRFTISRDNEKNTVYLQMISLKPEDTAVYYCAAEDIANFYYWGQGTQVTVSS | high polyreactivity
QVQLVESGGGLVQAGGSLRLSCAASGFIFRDNAMGWYRQAPGKERELVASIRSSGGRTYYADSVKGRFTISRDNAKNTVYLQMNSLKPEDTAVYYCARRWYPVTPYARMYYWGQGTQVTVSS | low polyreactivity
QVQLVESGGGLVQAGGSLRLSCAASGFIFRGNAMGWYRQAPGKERELVAAISVRGGRTYYADSVKGRFTISRDNAKNTVYLQMNSLKPEDTAVYYCAADLYNRGRGSSQSYRTGYDYWGQGTQVTVSS | high polyreactivity
QVQLVESGGGLVQAGGSLRLSCAASGFIFRGYAMGWYRQAPGKERELVAAITSSGGDTYYADSVKGRFTISRDNAKNTVYLQMNSLKPEDTAVYYCAKRARRIGDVNMGSWGQGTQVTVSS | low polyreactivity
QVQLVESGGGLVQAGGSLRLSCAASGFIFRGYGMGWYRQAPGKERELVASITTGGRTNYADSVKGRFTISRDNAKNTVYVQMNSLKPEDTAVYYCAATYYLRLRRPYWQGFNYWGQGTQVTVSS | high polyreactivity
QVQLVESGGGLVQAGGSLRLSCAASGFIFRGYTMGWYRQAPGKERELVAAITTTSSTYYADSVKGRFTISRDNAKNTVYLQMNSLKPEDTAVYYCAALFYRYGYLYNYWGQGTQVTVSS | high polyreactivity
QVQLVESGGGLVQAGGSLRLSCAASGFIFRHYAMGWYRQAPGKARELVAVINWSGSSTYYADSVKGRFTISRDNAKNTVYLQMNSLKPEDTAVYYCAVRSLRVDKYGYWGQGTQVTVSS | high polyreactivity
QVQLVESGGGLVQAGGSLRLSCAASGFIFRHYTMGWYRQAPGKERELVAAISSGGSTYYADSVKGRFTISRDNEKNTVYLQMNSLKPEDTAVYYCAARSRIYGLLFYYWGLGTQVTVSS | high polyreactivity
QVQLVESGGGLVQAGGSLRLSCAASGFIFRKYAMGWYRHAPGKETELVAAITRNGGRTYYADSVKGRFTISRDNAKYTVYLQMNSLKPEDTAVFYCNRRGQYTFWPIHEYWGQGTQVTVSS | high polyreactivity
QVQLVESGGGLVQAGGSLRLSCAASGFIFRLYAMGWYRQAPGKERELVAAISSSGGRTTYADSVKGRFTISRDNAKNTVYLQMNSLKPEDTAVYYCNADLWPGNHDGYWGQGTQVTVSS | low polyreactivity
QVQLVESGGGLVQAGGSLRLSCAASGFIFRNYALGWYRQAPGTERELVAAITGRGTSTYYADSVKGRFTISRDNAKNTVYLQMNSLKPEDTAVYYCAARSLALVYRKYDYWGQGTQVTVSS | high polyreactivity
QVQLVESGGGLVQAGGSLRLSCAASGFIFRNYAMGWYRQAPGKERELVASISRGTSTNYADSVKGRFTISRDNAKNTVDLQMNSLKPEDTAVYYCAVGRYPYGSARYGFDYWGQGTQVSVSS | high polyreactivity
